Assay results: the nanobody polyreactivity screen of Harvey et al. (2022)

Test: yeast display, Sf9 membrane polyspecificity reagent, FACS + sequencing; frameworks hold sequencing errors
How it was run: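 Genes from sorted yeast were amplified by colony PCR, read by MiSeq 2 × 250 sequencing and filtered on CDR length. These cells carried a synthetic nanobody library in Saccharomyces cerevisiae BJ5465 and were sorted by FACS into low and high (top ~1%) gates on anti-HA and streptavidin fluorescence. Polyreactivity is labelled according to the gate of origin.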
In the case of “QVQLVESGGGLVQAGGSLRLSCAASGSTFWPNAMGWYRQAPGKERELVAGITTSSGSTFYADSVKGRFTISRDNAKNTVYLQMNSLKPADTAVYYCNARVRRRRYKYDYWGQGTQVTVSS”, the “polyreactivity (PSR sort gate)” value is reported as “high polyreactivity”.
With “PVKLVESGGGLVQAGGSLRLSCAASGFTFFRNAMGWYRQAPGKERELVAAISGSGGRTYDADSVKGRFTISRDNAKNPVYLQLNSLKLEDTAVYYCAAVPVDPGYDYWGQGTQVTVSS” the “polyreactivity (PSR sort gate)” value was “high polyreactivity”.
In the case of “QVQLVESGGGLVQAGGSLRLSCAASGSNFGKYAMGWYRPAPGKERELVATITRRGGSTYYADSVKGRFTISRDNAKNTVYLQMNSLKPEDSAVYYCAKRSNGYVDYGYWGQGTQVTVSS”, the “polyreactivity (PSR sort gate)” value is reported as “high polyreactivity”.
With “QVQLLESGGGLVQAGGSLRLSCAASGRMFGSNAMGWYRQAPGKERELVAAITRGGSTNYADSVKGRFTISRDNAKNTVYFQMNSLKPEDTAVYYCAVRWYRKYNYWGQGTQVTVSS” the “polyreactivity (PSR sort gate)” value was “high polyreactivity”.
With “QVQLVESGGGLVQAGGSLRLRCAASGFIFCSYAMGWYRQAPGKERELVAAINTSGDSTYYADSVKGRFTISRDNAKNTVYLQINSLKPEDTAVYYCAAESSPDGYFLSDYWGQGTQVTVSS” the “polyreactivity (PSR sort gate)” value was “low polyreactivity”.
In the case of “QVQLVESGGGLVQAGGSLRLSCAASGFIFHRYAMGGYRQAPGKERELVASITRSGGSTYYADSVKGRFTISRDNAKNTVYLQMNSLKPEDTAVYYCAAQLPSYYKYPRHDYWGQGTQVTVSS”, the “polyreactivity (PSR sort gate)” value is reported as “high polyreactivity”.
With “QVQLVESGGGIVQAGGSLRLSCAASGFTLWLNAMGWYRQAPGKERELVAAITTSDDGTYYADSVKGRFTISRDNAKNTVYLQMNSLKPEDTAVYYCASDYYSVLYDYWGQGTQLTVSS” the “polyreactivity (PSR sort gate)” value was “low polyreactivity”.
With “QVHLVESGGGLVQAGGSHRLSCAASGRIFRGYAMGWYIQAPGKERELVAAISGRGGRTYYADSVKGRFTISRDNAKNTVYLQMNSLKPEDTAVYYCNARRGRRGYYGNGDYWGQGTQVTVSS” the “polyreactivity (PSR sort gate)” value was “high polyreactivity”.
With “QVQLVESVGGLVQAGGSLRLSCAASGSIRSYAIGWYRQAPGKERELVAAITRSGGSTYYADSVKGRFTISRDNAKNTVYLQMISLKPEDTAVYYCAARYTYSYPLFGSWGQGTQVTVSS” the “polyreactivity (PSR sort gate)” value was “high polyreactivity”.
With “QVQLVESGGGLVQAGGSLRLSCAASGGIFLPYAMGWYRQAPGKERELVAGITTSGGSTYYADSVKGRFTISRDNAKNTVYLQMNSLKPEDTAVYYCAKKSSLFKHVVRYDYWGQGTQVTVSS” the “polyreactivity (PSR sort gate)” value was “low polyreactivity”.
For “QVQLVESGGGLVQAGGSLRLSCAASGRTFRPYAMGWYRQAPGKERELVAAISSRGSSTYYADSVKGRFTISRDNAKNTVYLQMNSLKPEDTAVYYCAARSYWGGLRYDYWGQGTQVTVSS”, the “polyreactivity (PSR sort gate)” value was “high polyreactivity”.
In the case of “QVQLVESGGGLVQAGGSLRLSCAASGRTFRYNAKGSYIQAPGKERELVAAINWNGGSTYYADSVKGSFTISRDNAKNTVYLQMNSLKQEDTAVYYCNADFYHRYDWGQGTQVSVSS”, the “polyreactivity (PSR sort gate)” value is reported as “high polyreactivity”.
With “QVQLLDSGGGLVQAGCSLRLSCAASGLIFHRNAMGWYRQAPGKERELVAIISSGGGTTYYADSVKGRFTISRDNAKNTVYLQKNSLKPEDTAVYYCNARPRAYGSRGFDYWGQGTQVTVSS” the “polyreactivity (PSR sort gate)” value was “high polyreactivity”.
In the case of “QVQLVESGGGLVQAGGSLRLSCAASGRTFGYYTMGWYRQAPGKERELVAAITWSGSTYYADSVKGRFTISRDNAKNTVYLQMNSLKPEDTAVYYCAVEIYYFVYGISYDYWGQGTQVTVSS”, the “polyreactivity (PSR sort gate)” value is reported as “high polyreactivity”.
In the case of “QVQLVESGGGLVQAGGILRLSCAASGFIFWYNAMGWYRQAPGKERELVARINIGGTTSYADSVKGRFTISRDNAKNNVYLQMNSLKREDTAVYYCNAVQGRQYDYWGQGTQVNVSS”, the “polyreactivity (PSR sort gate)” value is reported as “low polyreactivity”.
For “QVQLVESGGGLVQAGGSLRLSCAASGITFTSNTLGWYRQAPGKERELVAAISKSGGSTYYADSVKGRFTISRDNAKNTVYLQMNSLKPEDTAVYYCAKDSDYYRRDVTVDYWGQGTQVTVSS”, the “polyreactivity (PSR sort gate)” value was “low polyreactivity”.
For “QVQLVESGGALVQAGGSLSLSCAASGFIFQPYAMGWYRQAPGKERELVAAITSRGGRTYYADSVMGRFTISRDNAKNTVYLQMNSLKPEDSAVYYCNADIYASEYYYWGQGTQVTVSS”, the “polyreactivity (PSR sort gate)” value was “low polyreactivity”.
With “QVQLVESGGGLVQAGGSLRLSCAASGSIFLHNAMGWYRQAPGTERELVAGITSSGTSTYYADSVKGRFTISRDIAKNTVYLQMNSLKPEDTAVYYCAAYRYGSRGGYWGQGTHVTVSS” the “polyreactivity (PSR sort gate)” value was “high polyreactivity”.
With “HVQLVESGGGLVQAGGSLRLSCAASGRILYGNAMGWYRKAPGKDRELVAAISWRADSTYYADSVKGRFTISRDNAKNTVYLQMNSLKPEDTAVYYCAADGNYRRHYWGQGTQVTVSS” the “polyreactivity (PSR sort gate)” value was “high polyreactivity”.
In the case of “QVQLVESGGGLVQAGGSLRLSCAASGRTFSRYAMGWYRQSPGKERELVAAITSGGGSTYYADSVKGRFTISRDNAKNTVYLQMNSLKPEDTAVYYCAVRSAPIVYVYVASWWSLYDYWGQGTQVTVSS”, the “polyreactivity (PSR sort gate)” value is reported as “low polyreactivity”.
For “QVQLVESGGGLVQAGGSLRLSCAASGSTFVVYAMGWYRQAPGKERELVAAITTSDDSTYYADSVKGRFTISRDNAKNTVYLQMNSLKPEDTAVYYCAATLRWQDGYWGQGTQVTVSS”, the “polyreactivity (PSR sort gate)” value was “low polyreactivity”.
In the case of “QVQLVESGGGLVQAGGSLRLSCAASGSIFLIYAMGWYRQAPGKERELVAAINYSGVRTYYADSEKGRFTISRDYAKNTLYLPMNSLKPEETAVYYCAPDATSYSYRYNYWGQGTQVTVSS”, the “polyreactivity (PSR sort gate)” value is reported as “high polyreactivity”.
With “QVQLVESGGGLVQAGGSLRLSCAASGRTFYWNAMGWYRQAPGKERELVAAITRNGGSTYYADSVKGRFTISRDNAKNTVYLQMNSLKPEDTAVYYCAARKRYGAGYDYWGQGTQVTVSS” the “polyreactivity (PSR sort gate)” value was “high polyreactivity”.
For “QVQLVESGGGLVQAGGSLRLSCAASGYIFLFYGMGWYRPAPGKERELVAAITYGGGSTYYADSVKGRFTISRDNAKNTVYLQMNSLKPEDTAVYYCNAPSRLSTIFYSGYDYWGQGTQVTVSS”, the “polyreactivity (PSR sort gate)” value was “low polyreactivity”.
For “QVQLVESCGGLVQAGGSLRLSCAASGRTFFGYAMGGYRQAPGKERELVAAINWGGASTYYADSVKGRFTISRDNAKNTVYLQMNSLKPEETAVYYCAADSVPSRPTYGRYDYWGQGTQVTVSS”, the “polyreactivity (PSR sort gate)” value was “low polyreactivity”.
For “QVQLVESGGGLVQAGGSLRVSCAASGSTFYYNAMGWYRQATGKERELVAAITRSAGSTYYADSVKGRFTISRDNAKNTVYLQMNSLKPEDTAVYYCNARYSFYGSYWTSGKYDYWGQGTQVTVSS”, the “polyreactivity (PSR sort gate)” value was “high polyreactivity”.
With “QVQLVESGGGLVQAGGSLRLSCAASGNIFAWYAMGWYRQAPGKERELVADISSRGGSTYYADSVKGRFTISRDNAKNTVYLQMNSLKPEDTAVYYCAAVWYWTQDYDYWGRGTQVTVSS” the “polyreactivity (PSR sort gate)” value was “low polyreactivity”.
With “QVQLVESGGGLVQAGGSLRLSCAASGSTFWVYTMGWYRQAPGKERALVAAINYSDGSTYYADSVKGRFTISRENAKNTVYLQMNSLKPEDTAVYYCAAGSDPTGRRYEYWGQGTQVTVSS” the “polyreactivity (PSR sort gate)” value was “low polyreactivity”.
With “QVQLVESGGGLVQEGGSLRLSCAASGNMLGTYAMGWYILAPGIEREFVAAISSSVGSTYYADSVKGRFTISRDNAKNSVYLQMNILKPEDTAVYYCAARKYQIYEKWGYLYDYWGQGTQVTVSS” the “polyreactivity (PSR sort gate)” value was “low polyreactivity”.
In the case of “QVQLVESVGGLVQAGGSLSLSCAASGIIFVPYAMVWYRQAPGKERELVAAISSGGSTDYADSVKGRFTISRDNAKNTVYLQMNSLKPEDTAVYYCNKYYRGIFKAHRDYWGQGTQVTLSS”, the “polyreactivity (PSR sort gate)” value is reported as “low polyreactivity”.
With “QVQLGESGGGLVQAGGSLRLSCAASGRIFASNAMGWYRPAPGKESELVAAIDQSGGSTYYADSVKGRFTISRDNAKNTVYLQMNSLKPEDTAVYYCAARAYLISSSTPFWTGYDSWGQGTQVTVSS” the “polyreactivity (PSR sort gate)” value was “low polyreactivity”.
With “QVQLVESGGGLVQAGGSLRLSCAASGSTFFYYAMGWYRQAPGKERELVAGITSGASTTYADSVKGRFTISRDNAKNNVYLQMNSLKPEDTAVYYCAADHVESSWSDYDYWGQGTQVTVSS” the “polyreactivity (PSR sort gate)” value was “low polyreactivity”.
In the case of “QVQLVESGGGLVQAGGSLRISCAASGFTFPLYAMGWYRQAPGKERELVAAINYRGSSTYYADSVKGRFTISRDNAKNTVYLHMNSLKPEYTAVYYCNAADPVWNQVYWGSNEYDYWGQGTQVTVSS”, the “polyreactivity (PSR sort gate)” value is reported as “high polyreactivity”.
For “QVQLVESGGGLVQAGGSLRLSCAASGRTFYRYSMGWYRQAPAKERELVAAISSSGGRTYYADSVKGRFTISRDNAKNTVYLQMNSLKPEDTAVYYCIKAYYYWYDWGQGTQVTVSS”, the “polyreactivity (PSR sort gate)” value was “high polyreactivity”.
With “QVQLVESGGGLVQAGGSLRLSCAASGSIFLRYGMGWYRQAPGKERELVAAISRGGGSTYYADSVKGRFTISRDNAKNTVYLQMNSLKPEDTAVYYCNKASYRYSSDYDYWGQGTQVTVSS” the “polyreactivity (PSR sort gate)” value was “high polyreactivity”.
With “QVQLVESGGGLVQAGGSLRLSCAASGSTFGPYAMGWYRQAPGKERELVATITRNGGSTYYADSVKGRFTISRDNAKNTVYLQMNSLKPEDTAVYYCNAEGRWSSFTQRMDYWGQGTQVTVSW” the “polyreactivity (PSR sort gate)” value was “low polyreactivity”.
In the case of “QVQLVESGGGLVQAGGSLRLSCAASGFTFVWYTMGWYRQAPGKERELVAAISSSGGTTYYADSVKGRFTISRDNAKNTVYLQMNSLKPEDTAVYYCNVAYFYTTPTRGYNYWGQGTQVTVSS”, the “polyreactivity (PSR sort gate)” value is reported as “high polyreactivity”.
In the case of “QVQLVESGGGLVQAGGRHRLTCAASGYTFDWYTMGWYRQAPGTERELVAAISASGVRTYYADSVKGRFTISSDNAKNSVYLQMNSLKPEDTAVYYCYRVYSTSRITEYEFDYWGQGTQVTVSS”, the “polyreactivity (PSR sort gate)” value is reported as “low polyreactivity”.
In the case of “QVQLVESGGGLVQAGGSLRLSCAASGYIFLRNAMGWSRQAPGKERELVAAIRRTGGSTYYADSVKGRFTISRDNAKNTVYLQMNSLKPEVTAVYYCAKRSYTGYEYWGQGTQVTVSS”, the “polyreactivity (PSR sort gate)” value is reported as “low polyreactivity”.
For “QVQLVESGGGLVQAGGSLRLSCAASGRIFGWYAMGWYRQAPGKERELVAAISNDGSTNYADSVKGRFTISRDNAKNTVYLQMNSLKPEDTAVYYCAARFYRSSYGWYGYWGQGTQVTVSS”, the “polyreactivity (PSR sort gate)” value was “high polyreactivity”.
For “QVQLVESGGGLVQAGGSLRLSCAASGSIFDRYALGWYRQAPGKERELVAAISTGGSTNYADSVKGRFTISRDNAKNTVYLQMNSLKPEDTAVYYCAAERYWVFHGTISYKYDYWGQGSQVTVSS”, the “polyreactivity (PSR sort gate)” value was “low polyreactivity”.
In the case of “QVQLQESGGGLVQAGGSLLSCAASGTISWVDEMGWYRQAPGNERELVAGIAGGGNTNYADSVKGRFTISRDNAKNTVYLQMNSLDTAVYYCAVVGFGLGTHIYWGQGTQVTVSS”, the “polyreactivity (PSR sort gate)” value is reported as “high polyreactivity”.
For “QFQLVESVGGLVQAGGSLRLSLASSGSIFGPNTMGWYRQAPGKERELVAAIRGGGSTNYADSVKGRFTISRDNAKNTVYLQMNSLKPEDTAVYYCNATWNLFPGFLDRYDYWGQGTQVTVSS”, the “polyreactivity (PSR sort gate)” value was “low polyreactivity”.
